Changes are numbered by the printed parent chain. Where “and” joins values, the source holds several entries; their conditions need not be identical. Equal values may be shown once.
B1: XIAP BIR2^154-240 (domain or fragment)
chain: YPRNPAMYSEEARLKSFQNWPDYAHLTPRELASAGLYYTGIGDQVQCFCCGGKLKNWEPCDRAWSEHRRHFPNCFFVLGRNLNIRSE
B2: XIAP BIR2AG^154-240 (domain or fragment)
chain: B1 chain with C49A, C60G
B3: XIAP BIR2^93-240 (domain or fragment)
chain: GPINGFYLENSATQSTNSGIQNGQYKVENYLGSRDHFALDRPSETHADYLLRTGQVVDISDTIYPRNPAMYSEEARLKSFQNWPDYAHLTPRELASAGLYYTGIGDQVQCFCCGGKLKNWEPCDRAWSEHRRHFPNCFFVLGRNLNIRSE
B4: XIAP BIR2^124-263 (domain or fragment)
chain: GPRDHFALDRPSETHADYLLRTGQVVDISDTIYPRNPAMYSEEARLKSFQNWPDYAHLTPRELASAGLYYTGIGDQVQCFCCGGKLKNWEPCDRAWSEHRRHFPNCFFVLGRNLNIRSESDAVSSDRNFPNSTNLPRNPSMA
B5: XIAP BIR2^124-240 (domain or fragment)
chain: GPRDHFALDRPSETHADYLLRTGQVVDISDTIYPRNPAMYSEEARLKSFQNWPDYAHLTPRELASAGLYYTGIGDQVQCFCCGGKLKNWEPCDRAWSEHRRHFPNCFFVLGRNLNIRSE
B6: XIAP BIR2AG^124-240 (domain or fragment)
chain: B5 chain with C81A, C92G
B7: XIAP BIR2^93-263 (domain or fragment)
chain: GPINGFYLENSATQSTNSGIQNGQYKVENYLGSRDHFALDRPSETHADYLLRTGQVVDISDTIYPRNPAMYSEEARLKSFQNWPDYAHLTPRELASAGLYYTGIGDQVQCFCCGGKLKNWEPCDRAWSEHRRHFPNCFFVLGRNLNIRSESDAVSSDRNFPNSTNLPRNPSMA
B8: RIP2K^1-317 (kinase domain of human RIP2, residues 1-317) (domain or fragment)
chain: MNGEAICSALPTIPYHKLADLRYLSRGASGTVSSARHADWRVQVAVKHLHIHTPLLDSERKDVLREAEILHKARFSYILPILGICNEPEFLGIVTEYMPNGSLNELLHRKTEYPDVAWPLRFRILHEIALGVNYLHNMTPPLLHHDLKTQNILLDNEFHVKIADFGLSKWRMMSLSQSRSSKSAPEGGTIIYMPPENYEPGQKSRASIKHDIYSYAVITWEVLSRKQPFEDVTNPLQIMYSVSQGHRPVINEESLPYDIPHRARMISLIESGWAQNPDERPSFLKCLIELEPVLRTFEEITFLEAVIQLKKTKLQSV

Legend:
[1] = target: RIP2K^1-300 (kinase domain of human RIP2, residues 1-300) (human, UniProt O43353 1-300); assay: MST
[2] = target: B8; assay: native MS
[3] = target: B8; assay: cryo-EM structure
[4] = target: B8; assay: NMR translational diffusion
[5] = target: the molecule itself; assay: native MS

Row | binding result [1] | Binder | stoichiometry N [2] | other results
1 |  | B1 | 1 RIP2K per XIAP BIR2 (2:2) | Kd [1]: 85.6 ± 18.7 nM; stoichiometry N [3]: 2 RIP2K per XIAP BIR2 (2:1)
2 |  | B2 | 2 RIP2K per XIAP BIR2 (2:1) and 1 RIP2K per XIAP BIR2 (2:2) | 
3 | binds | B3 |  | 
4 | binds | B4 |  | 
5 |  | B5 | 1 RIP2K per XIAP BIR2 (2:2) and 2 RIP2K per XIAP BIR2 (2:1) | 
6 |  | B6 | 1 RIP2K per XIAP BIR2 (2:2) | stoichiometry N [4]: 2 RIP2 per BIR2 (1:2 BIR2:RIP2)
7 | binds | B7 |  | 
8 |  | B8 |  | stoichiometry N [5]: 2
